{"source": "paper PMC12514197", "about": "“LARGE1 processively polymerizes length-controlled matriglycan on prodystroglycan” (Nature Communications, 2025)", "key": {"[1]": {"biological_target": "T1, prodystroglycan (DAG1_(28-340)) (Homo sapiens, UniProt Q14118 28-340, R311A | R312A)", "T1 sequence": "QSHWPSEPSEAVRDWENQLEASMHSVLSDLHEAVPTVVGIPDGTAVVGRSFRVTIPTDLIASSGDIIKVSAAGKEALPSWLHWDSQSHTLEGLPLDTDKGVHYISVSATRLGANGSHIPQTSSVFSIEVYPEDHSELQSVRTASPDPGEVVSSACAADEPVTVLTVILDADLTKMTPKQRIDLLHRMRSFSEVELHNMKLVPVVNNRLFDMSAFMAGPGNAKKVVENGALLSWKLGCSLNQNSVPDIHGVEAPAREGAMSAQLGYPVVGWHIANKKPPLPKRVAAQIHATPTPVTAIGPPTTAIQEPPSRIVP", "assay": "MST"}, "[2]": {"biological_target": "the molecule itself", "assay": "SEC-MALS; Superdex 200 Increase 10/300 GL, 20 mM HEPES pH 7.4, 150 mM NaCl, samples 4-8 mg/mL, on line with SAXS"}}, "data": [{"binder": "LARGE1dTM (enzyme, N-glycans; NHS-red label in the microscale thermophoresis experiments, LARGE1 lacking the transmembrane domain; soluble secreted construct; Homodimer by cryo-EM and SEC-MALS; also called Like-acetylglucosaminyltransferase-1; apo-LARGE1dTM; source: HEK293-F, stably transfected, secreted, purified (TALON resin)) FEDGKPVSLSPLESQAHSPRYTASSQRERESLEVRMREVEEENRALRRQLSLAQGRAPSHRRGNHSKTYSMEEGTGDSENLRAGIVAGNSSECGQQPVVEKCETIHVAIVCAGYNASRDVVTLVKSVLFHRRNPLHFHLIADSIAEQILATLFQTWMVPAVRVDFYNADELKSEVSWIPNKHYSGIYGLMKLVLTKTLPANLERVIVLDTDITFATDIAELWAVFHKFKGQQVLGLVENQSDWYLGNLWKNHRPWPALGRGYNTGVILLLLDKLRKMKWEQMWRLTAERELMGMLSTSLADQDIFNAVIKQNPFLVYQLPCFWNVQLSDHTRSEQCYRDVSDLKVIHWNSPKKLRVKNKHVEFFRNLYLTFLEYDGNLLRRELFGCPSEADVNSENLQKQLSELDEDDLCYEFRRERFTVHRTHLYFLHYEYEPAADSTDVTLVAQLSMDRLQMLEAICKHWEGPISLALYLSDAEAQQFLRYAQGSEVLMSRHNVGYHIVYKEGQFYPVNLLRNVAMKHISTPYMFLSDIDFLPMYGLYEYLRKSVIQLDLANTKKAMIVPAFETLRYRLSFPKSKAELLSMLDMGTLFTFRYHVWTKGHAPTNFAKWRTATTPYRVEWEADFEPYVVVRRDCPEYDRRFVGFGWNKVAHIMELDVQEYEFIVLPNAYMIHMPHAPSFDITKFRSNKQYRICLKTLKEEFQQDMSRRYGFAALKYLTAENNS", "values": [{"measurement": "Kd", "setting": "[1]", "value": "~180", "unit": "nM"}, {"measurement": "stoichiometry N", "setting": "[2]", "value": 2}]}]}
